Measurements from patent US20260167728A1 (published 2026).

Molecular target: T1, huCD3e-mFc (human, UniProt P07766 23-126)
T1 construct: not shown: mFc, not described
Experiment: Pool 3 screen

T1 sequence (P07766 23-126): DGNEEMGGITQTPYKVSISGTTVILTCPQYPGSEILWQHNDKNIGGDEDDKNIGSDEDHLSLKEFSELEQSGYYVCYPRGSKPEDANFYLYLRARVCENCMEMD

Kd	Binder
0.01 µM	AC3825 (CD3.321) (scFv, V domains shown, Pool 3 format (remarks)) VH: EVQLVESGGGIVQPGGSLRLSCAASGFTFNTYAMNWVRQAPGKGLEWVGRIRTKTNNYATYYADSVKGRFTISRDDSKNTVYLQMNSLKTEDTAVYYCVRHENFGNSYVSWFAHWGQGTLVTVSS VL: ELVVTQEPSLTVSPGGTVTLTCRSSNGAVTSSNYANWVQQKPGQAPRGLIGGTNKRAPGTPARFSGSGLGGKAALTLSGVQPEDEAVYYCALWYPNLWVFGGGTKLTVL
0.0245 µM	AC3839 (CD3.335) (scFv, V domains shown, Pool 3 format (remarks)) VH: EVQLVESGGGIVQPGGSLRLSCAASGFTFNTYAMNWVRQAPGKGLEWVGRIRTKTNDYATYYADSVKGRFTISRDDSKNTAYLQMNSLKTEDTAVYYCVRHENFGNSYVSWFAHWGQGTLVTVSS VL: ELVVTQEPSLTVSPGGTVTLTCRSSNGAVTSSNYANWVQQKPGQAPRGLIGGTNKRAPGTPARFSGSLLGGKAGLTLSGVQPEDEAVYYCALWYPNLWVFGGGTKLTVL
0.0307 µM	AC3838 (CD3.334) (scFv, V domains shown, Pool 3 format (remarks)) VH: EVQLVESGGGIVQPGGSLRLSCAASGFTFNTYAMNWVRQAPGKGLEWVGRIRTKTNDYATYYADSVKGRFTISRDDSKNTAYLQMNSLKTEDTAVYYCVRHENFGNSYVSWFAHWGQGTLVTVSS VL: ELVVTQEPSLTVSPGGTVTLTCRSSNGAVTSSNYANWVQQKPGQAPRGLIGGTNKRAPGTPARFSGSLDGGKAALTLSGVQPEDEAVYYCALWYPNLWVFGGGTKLTVL
0.0101 µM	AC3829 (CD3.325) (scFv, V domains shown, Pool 3 format (remarks)) VH: EVQLVESGGGIVQPGGSLRLSCAASGFTFNTYAMNWVRQAPGKGLEWVGRIRTKTNNYATYYADSVKGRFTISRDDSKNTVYLQMNSLKTEDTAVYYCVRHENFGNSYVSWFAHWGQGTLVTVSS VL: ELVVTQEPSLTVSPGGTVTLTCRSSNGAVTSSNYANWVQQKPGQAPRGLIGGTNKRAPGTPARFSGSLDGGKAALTLSGVQPEDEAVYYCALWYPNLWVFGGGTKLTVL
0.017 µM	AC3842 (CD3.338) (scFv, V domains shown, Pool 3 format (remarks)) VH: EVQLVESGGGIVQPGGSLRLSCAASGFTFNTYAMNWVRQAPGKGLEWVGRIRTKTNDYATYYADSVKGRFTISRDDSKNTLYLQMNSLKTEDTAVYYCVRHENFGNSYVSWFAHWGQGTLVTVSS VL: ELVVTQEPSLTVSPGGTVTLTCRSSNGAVTSSNYANWVQQKPGQAPRGLIGGTNKRAPGTPARFSGSALGGKAALTLSGVQPEDEAVYYCALWYPNLWVFGGGTKLTVL
0.014 µM	AC3847 (CD3.343) (scFv, V domains shown, Pool 3 format (remarks)) VH: EVQLVESGGGIVQPGGSLRLSCAASGFTFNTYAMNWVRQAPGKGLEWVGRIRTKTNDYATYYADSVKGRFTISRDDSKNTLYLQMNSLKTEDTAVYYCVRHENFGNSYVSWFAHWGQGTLVTVSS VL: ELVVTQEPSLTVSPGGTVTLTCRSSNGAVTSSNYANWVQQKPGQAPRGLIGGTNKRAPGTPARFSGSLDGGKAALTLSGVQPEDEAVYYCALWYPNLWVFGGGTKLTVL
0.00721 µM	AC3828 (CD3.324) (scFv, V domains shown, Pool 3 format (remarks)) VH: EVQLVESGGGIVQPGGSLRLSCAASGFTFNTYAMNWVRQAPGKGLEWVGRIRTKTNNYATYYADSVKGRFTISRDDSKNTVYLQMNSLKTEDTAVYYCVRHENFGNSYVSWFAHWGQGTLVTVSS VL: ELVVTQEPSLTVSPGGTVTLTCRSSNGAVTSSNYANWVQQKPGQAPRGLIGGTNKRAPGTPARFSGSLGGGKAALTLSGVQPEDEAVYYCALWYPNLWVFGGGTKLTVL

Continued, binder first:

Binder	Kd
AC3843 (CD3.339) (scFv, V domains shown, Pool 3 format (remarks)) VH: EVQLVESGGGIVQPGGSLRLSCAASGFTFNTYAMNWVRQAPGKGLEWVGRIRTKTNDYATYYADSVKGRFTISRDDSKNTLYLQMNSLKTEDTAVYYCVRHENFGNSYVSWFAHWGQGTLVTVSS VL: ELVVTQEPSLTVSPGGTVTLTCRSSNGAVTSSNYANWVQQKPGQAPRGLIGGTNKRAPGTPARFSGSGLGGKAALTLSGVQPEDEAVYYCALWYPNLWVFGGGTKLTVL	0.0154 µM
AC3841 (CD3.337) (scFv, V domains shown, Pool 3 format (remarks)) VH: EVQLVESGGGIVQPGGSLRLSCAASGFTFNTYAMNWVRQAPGKGLEWVGRIRTKTNDYATYYADSVKGRFTISRDDSKNTLYLQMNSLKTEDTAVYYCVRHENFGNSYVSWFAHWGQGTLVTVSS VL: ELVVTQEPSLTVSPGGTVTLTCRSSNGAVTSSNYANWVQQKPGQAPRGLIGGTNKRAPGTPARFSGSLLGGKAALTLSGVQPEDEAVYYCALWYPNLWVFGGGTKLTVL	0.0122 µM
AC3835 (CD3.331) (scFv, V domains shown, Pool 3 format (remarks)) VH: EVQLVESGGGIVQPGGSLRLSCAASGFTFNTYAMNWVRQAPGKGLEWVGRIRTKTNDYATYYADSVKGRFTISRDDSKNTAYLQMNSLKTEDTAVYYCVRHENFGNSYVSWFAHWGQGTLVTVSS VL: ELVVTQEPSLTVSPGGTVTLTCRSSNGAVTSSNYANWVQQKPGQAPRGLIGGTNKRAPGTPARFSGSLNGGKAALTLSGVQPEDEAVYYCALWYPNLWVFGGGTKLTVL	0.0357 µM
AC3857 (CD3.353) (scFv, V domains shown, Pool 3 format (remarks)) VH: EVQLVESGGGIVQPGGSLRLSCAASGFTFSTYAMNWVRQAPGKGLEWVGRIRTKTNNYATYYADSVKGRFTISRDDSKNTVYLQMNSLKTEDTAVYYCVRHENFGNSYVSWFAHWGQGTLVTVSS VL: ELVVTQEPSLTVSPGGTVTLTCRSSNGAVTSSNYANWVQQKPGQAPRGLIGGTNKRAPGTPARFSGSLLGGKAGLTLSGVQPEDEAVYYCALWYPNLWVFGGGTKLTVL	0.0123 µM
AC3840 (CD3.336) (scFv, V domains shown, Pool 3 format (remarks)) VH: EVQLVESGGGIVQPGGSLRLSCAASGFTFNTYAMNWVRQAPGKGLEWVGRIRTKTNDYATYYADSVKGRFTISRDDSKNTAYLQMNSLKTEDTAVYYCVRHENFGNSYVSWFAHWGQGTLVTVSS VL: ELVVTQEPSLTVSPGGTVTLTCRSSNGAVTSSNYANWVQQKPGQAPRGLIGGTNKRAPGTPARFSGSLLEGKAALTLSGVQPEDEAVYYCALWYPNLWVFGGGTKLTVL	0.0326 µM
AC3834 (CD3.330) (scFv, V domains shown, Pool 3 format (remarks)) VH: EVQLVESGGGIVQPGGSLRLSCAASGFTFNTYAMNWVRQAPGKGLEWVGRIRTKTNDYATYYADSVKGRFTISRDDSKNTAYLQMNSLKTEDTAVYYCVRHENFGNSYVSWFAHWGQGTLVTVSS VL: ELVVTQEPSLTVSPGGTVTLTCRSSNGAVTSSNYANWVQQKPGQAPRGLIGGTNKRAPGTPARFSGSGLGGKAALTLSGVQPEDEAVYYCALWYPNLWVFGGGTKLTVL	0.0234 µM
AC3836 (CD3.332) (scFv, V domains shown, Pool 3 format (remarks)) VH: EVQLVESGGGIVQPGGSLRLSCAASGFTFNTYAMNWVRQAPGKGLEWVGRIRTKTNDYATYYADSVKGRFTISRDDSKNTAYLQMNSLKTEDTAVYYCVRHENFGNSYVSWFAHWGQGTLVTVSS VL: ELVVTQEPSLTVSPGGTVTLTCRSSNGAVTSSNYANWVQQKPGQAPRGLIGGTNKRAPGTPARFSGSLEGGKAALTLSGVQPEDEAVYYCALWYPNLWVFGGGTKLTVL	0.0306 µM
AC3849 (CD3.345) (scFv, V domains shown, Pool 3 format (remarks)) VH: EVQLVESGGGIVQPGGSLRLSCAASGFTFNTYAMNWVRQAPGKGLEWVGRIRTKTNDYATYYADSVKGRFTISRDDSKNTLYLQMNSLKTEDTAVYYCVRHENFGNSYVSWFAHWGQGTLVTVSS VL: ELVVTQEPSLTVSPGGTVTLTCRSSNGAVTSSNYANWVQQKPGQAPRGLIGGTNKRAPGTPARFSGSLLEGKAALTLSGVQPEDEAVYYCALWYPNLWVFGGGTKLTVL	0.018 µM
AC3848 (CD3.344) (scFv, V domains shown, Pool 3 format (remarks)) VH: EVQLVESGGGIVQPGGSLRLSCAASGFTFNTYAMNWVRQAPGKGLEWVGRIRTKTNDYATYYADSVKGRFTISRDDSKNTLYLQMNSLKTEDTAVYYCVRHENFGNSYVSWFAHWGQGTLVTVSS VL: ELVVTQEPSLTVSPGGTVTLTCRSSNGAVTSSNYANWVQQKPGQAPRGLIGGTNKRAPGTPARFSGSLLGGKAGLTLSGVQPEDEAVYYCALWYPNLWVFGGGTKLTVL	0.0142 µM
AC3846 (CD3.342) (scFv, V domains shown, Pool 3 format (remarks)) VH: EVQLVESGGGIVQPGGSLRLSCAASGFTFNTYAMNWVRQAPGKGLEWVGRIRTKTNDYATYYADSVKGRFTISRDDSKNTLYLQMNSLKTEDTAVYYCVRHENFGNSYVSWFAHWGQGTLVTVSS VL: ELVVTQEPSLTVSPGGTVTLTCRSSNGAVTSSNYANWVQQKPGQAPRGLIGGTNKRAPGTPARFSGSLGGGKAALTLSGVQPEDEAVYYCALWYPNLWVFGGGTKLTVL	0.00999 µM
AC3844 (CD3.340) (scFv, V domains shown, Pool 3 format (remarks)) VH: EVQLVESGGGIVQPGGSLRLSCAASGFTFNTYAMNWVRQAPGKGLEWVGRIRTKTNDYATYYADSVKGRFTISRDDSKNTLYLQMNSLKTEDTAVYYCVRHENFGNSYVSWFAHWGQGTLVTVSS VL: ELVVTQEPSLTVSPGGTVTLTCRSSNGAVTSSNYANWVQQKPGQAPRGLIGGTNKRAPGTPARFSGSLNGGKAALTLSGVQPEDEAVYYCALWYPNLWVFGGGTKLTVL	0.0106 µM
AC3837 (CD3.333) (scFv, V domains shown, Pool 3 format (remarks)) VH: EVQLVESGGGIVQPGGSLRLSCAASGFTFNTYAMNWVRQAPGKGLEWVGRIRTKTNDYATYYADSVKGRFTISRDDSKNTAYLQMNSLKTEDTAVYYCVRHENFGNSYVSWFAHWGQGTLVTVSS VL: ELVVTQEPSLTVSPGGTVTLTCRSSNGAVTSSNYANWVQQKPGQAPRGLIGGTNKRAPGTPARFSGSLGGGKAALTLSGVQPEDEAVYYCALWYPNLWVFGGGTKLTVL	0.0179 µM
AC3845 (CD3.341) (scFv, V domains shown, Pool 3 format (remarks)) VH: EVQLVESGGGIVQPGGSLRLSCAASGFTFNTYAMNWVRQAPGKGLEWVGRIRTKTNDYATYYADSVKGRFTISRDDSKNTLYLQMNSLKTEDTAVYYCVRHENFGNSYVSWFAHWGQGTLVTVSS VL: ELVVTQEPSLTVSPGGTVTLTCRSSNGAVTSSNYANWVQQKPGQAPRGLIGGTNKRAPGTPARFSGSLEGGKAALTLSGVQPEDEAVYYCALWYPNLWVFGGGTKLTVL	0.0158 µM
AC3826 (CD3.322) (scFv, V domains shown, Pool 3 format (remarks)) VH: EVQLVESGGGIVQPGGSLRLSCAASGFTFNTYAMNWVRQAPGKGLEWVGRIRTKTNNYATYYADSVKGRFTISRDDSKNTVYLQMNSLKTEDTAVYYCVRHENFGNSYVSWFAHWGQGTLVTVSS VL: ELVVTQEPSLTVSPGGTVTLTCRSSNGAVTSSNYANWVQQKPGQAPRGLIGGTNKRAPGTPARFSGSLNGGKAALTLSGVQPEDEAVYYCALWYPNLWVFGGGTKLTVL	0.007 µM
AC3830 (CD3.326) (scFv, V domains shown, Pool 3 format (remarks)) VH: EVQLVESGGGIVQPGGSLRLSCAASGFTFNTYAMNWVRQAPGKGLEWVGRIRTKTNNYATYYADSVKGRFTISRDDSKNTVYLQMNSLKTEDTAVYYCVRHENFGNSYVSWFAHWGQGTLVTVSS VL: ELVVTQEPSLTVSPGGTVTLTCRSSNGAVTSSNYANWVQQKPGQAPRGLIGGTNKRAPGTPARFSGSLLGGKAGLTLSGVQPEDEAVYYCALWYPNLWVFGGGTKLTVL	0.00665 µM
